Laboratory results from article PMC3839042.

How the values were obtained:
human S100A2 (human) = human S100A2 (human) (UniProt P29034); test: ITC
human S100B (human) = human S100B (human) (UniProt P04271); test: ITC
Chain of human S100B (human) (P04271 whole entry): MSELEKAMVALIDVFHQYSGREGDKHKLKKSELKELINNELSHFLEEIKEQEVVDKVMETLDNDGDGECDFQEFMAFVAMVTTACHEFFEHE

Chain of human S100A2 (human) (P29034 whole entry): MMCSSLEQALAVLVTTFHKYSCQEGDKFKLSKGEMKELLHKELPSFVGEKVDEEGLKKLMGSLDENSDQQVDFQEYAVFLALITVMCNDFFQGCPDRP

Q: With TRTK12 wild-type peptide (Ac-…-NH2) as the substance, how does the stoichiometry N (peptides per S100A2 dimer) (human S100A2 (human)) read?
A: Its stoichiometry N (peptides per S100A2 dimer) is 2.

Q: And the stoichiometry N (peptides per S100B dimer) (human S100B (human))?
A: Its stoichiometry N (peptides per S100B dimer) is 2.
